Laboratory results as given in the RNAGym collection of RNA variant scans (doi:10.7554/elife.90254).

B1: OR4K15 (parent)
chain: GUUAACGGUCAUAGGCCAUGGAAACUAGGAGCACCAUUUCGCUGCCAGUGAAGAAAUGAACAAAGAAAAUCUGGGCCAGGCAGGCAUCAAAAGAAAUAGUCUUGCGCUCAACCAGAAAGUCUGUAAUCAUUUUAAGGGUA

Variants of: B1
Test: self-cleavage, relative activity (ratio to wild type); higher = more cleavage; in vitro, sequencing; the parent is a self-cleaving ribozyme

Variant	self-cleavage
U9C A24G	1.33
A13G U124C	0.57
C40U U72A	0.34
G41U A47G	1.2
A18G U130G	1.61
A129U U131C	0.96
U70A A94G	0.72
A23G U127G	1
U9C U108G	0.06
A62G U70A	1.59
A92G G106A	0.02
U19A U130C	0.95
U37C A55G	1.59
A4G A96C	0.67
A129G A134G	1.15
A36G U37G	1.45
U2A C10U	0.88
U26G A52C	0.7
A94U A117U	0.82
U3C U127C	1.79
A27U A125G	0.84
G8A U133G	2.78
G75A A135G	0.04
A69G A135U	1.45

Variant	self-cleavage
A55U U124A	1.07
U49A G74A	0.24
A23U U102A	1.09
U57A A92G	1.42
A47G U97A	1.21
A94G A114U	0.04
A98U	2.22
C46A A60U	1.27
C6U A110G	0.19
A56G U87A	1.54
U132C A135G	1.53
A63G A92G	1.66
U122A	1.21
A68G U100C	1.42
U12C U139C	1.41
A22G U108A	0.01
U26A A96G	1.39
U9A U49A	1
U2A U131C	0.69
A59G U139A	2.02
U72G	0.12
A13U A89G	1.51
A54G A86U	1.71
A23G U87A	0.94

Variant	self-cleavage
A51C	1.43
G7A A116U	0.33
G75C	0.17
U38C U108C	0.02
A111U A116G	0.04
A96G A116G	0.98
A86U U139A	1.53
U9C C34U	1.01
A36U A66U	1.05
C6U U57A	0.77
A22C A96G	2.53
A23G U122C	0.84
U49C A63G	1.75
A55U A64G	1.76
A51G A89U	1.41
A78U U108A	0.01
A129G	0.93
U102C C128A	2.11
A56G A125G	0.51
A59U A96C	0.81
A98U A114G	0.5
A52G A91G	1.01
A33C A67U	1.28
U9C C40A	1.25

Variant	self-cleavage
A11G U70C	0.76
A96U A114G	0.85
U9C C77U	1.18
A68G U120C	0.65
G79U U102C	0.06
U12C A59G	0.86
A5U A86G	0.92
U12C A117G	1.33
A86G C109U	0.22
C76G	0.16
A63U U131A	2.65
A64C A82U	0.26
A67G A68U	1.13
U122A U132C	2.13
U2A U139G	0.81
A60G A82C	0.08
G41A A91G	1.55
A90G A135G	0.51
A27U A63G	2.61
A64G A116U	0.19
U38C G93U	2.26
A5C U102A	1.35
A30U U43C	1.88
G7A G79A	0.11

Variant	self-cleavage
A22G A86G	1.31
U2C G29A	1.36
C6A A66G	1.23
G75A U120C	0.02
A62G U127C	0.38
A55U A126G	1.47
G44A A63C	2.07
A92G A116G	0.44
U26C A30U	1.14
U57G A78U	0.22
A56C U108C	0.01
U49A A82G	0.52
A11G A68G	1.13
A86G C113U	0.03
C40A A66U	1.52
A36G G65U	1.06
G20A A64G	1.49
A30G C101A	0.14
A33G G53C	0.81
U37C A60G	0.54
U38C U43C	1.59
A36U A135C	1.65
A68U U120A	1.48
G31A U132C	1.72

Variant	self-cleavage
G74A C76U	0.11
A36G U132A	1.41
A23G A59G	1.11
A33G A125U	1.17
U2C A66G	1.45
A92G C105U	0.08
A30G A117U	0.99
A18G A60G	0.97
U19C G137A	0.95
A33U G48A	1.42
G7A A68G	1.92
G74U G83A	0.16
G7U A67G	1.28
A47U A118G	0.76
A96G C107A	0.01
A13G A68G	0.65
A54U A134G	1.32
U12C A62G	1.18
A24G C35U	1.12
A47C A116G	1.3
U127A U131C	2.45
A98U U127C	1.98
A52C A67U	1.67
U100C U108A	0.02

Variant	self-cleavage
A78C U130C	0.21
A82G C121U	0.91
U139G	1.1
G93A U102A	2.2
A62G C105A	0.03
U57A A86G	1.09
A60C A89C	1.8
G7U U49C	1.71
A64G U127A	2.12
U37C A51G	1.49
U102C A118G	1.31
G75U C85U	0.21
G73A U120C	0.07
G123A A126G	1.34
G44A	1.53
A82G G136A	0.9
A60U U131C	0.75
U39C A129U	1.16
A47G A67G	1.12
A33C U102C	2.22
G31A G137U	1.5
U87G A117G	0.46
A51G G65A	1.12
